Experimental data taken from patent US20250092426, “CAS ENDONUCLEASES AND RELATED METHODS” (Flagship Pioneering Innovations VII, LLC, published 2025).

Target: T1, CasEnd-6 (synthetic construct)
T1 chain: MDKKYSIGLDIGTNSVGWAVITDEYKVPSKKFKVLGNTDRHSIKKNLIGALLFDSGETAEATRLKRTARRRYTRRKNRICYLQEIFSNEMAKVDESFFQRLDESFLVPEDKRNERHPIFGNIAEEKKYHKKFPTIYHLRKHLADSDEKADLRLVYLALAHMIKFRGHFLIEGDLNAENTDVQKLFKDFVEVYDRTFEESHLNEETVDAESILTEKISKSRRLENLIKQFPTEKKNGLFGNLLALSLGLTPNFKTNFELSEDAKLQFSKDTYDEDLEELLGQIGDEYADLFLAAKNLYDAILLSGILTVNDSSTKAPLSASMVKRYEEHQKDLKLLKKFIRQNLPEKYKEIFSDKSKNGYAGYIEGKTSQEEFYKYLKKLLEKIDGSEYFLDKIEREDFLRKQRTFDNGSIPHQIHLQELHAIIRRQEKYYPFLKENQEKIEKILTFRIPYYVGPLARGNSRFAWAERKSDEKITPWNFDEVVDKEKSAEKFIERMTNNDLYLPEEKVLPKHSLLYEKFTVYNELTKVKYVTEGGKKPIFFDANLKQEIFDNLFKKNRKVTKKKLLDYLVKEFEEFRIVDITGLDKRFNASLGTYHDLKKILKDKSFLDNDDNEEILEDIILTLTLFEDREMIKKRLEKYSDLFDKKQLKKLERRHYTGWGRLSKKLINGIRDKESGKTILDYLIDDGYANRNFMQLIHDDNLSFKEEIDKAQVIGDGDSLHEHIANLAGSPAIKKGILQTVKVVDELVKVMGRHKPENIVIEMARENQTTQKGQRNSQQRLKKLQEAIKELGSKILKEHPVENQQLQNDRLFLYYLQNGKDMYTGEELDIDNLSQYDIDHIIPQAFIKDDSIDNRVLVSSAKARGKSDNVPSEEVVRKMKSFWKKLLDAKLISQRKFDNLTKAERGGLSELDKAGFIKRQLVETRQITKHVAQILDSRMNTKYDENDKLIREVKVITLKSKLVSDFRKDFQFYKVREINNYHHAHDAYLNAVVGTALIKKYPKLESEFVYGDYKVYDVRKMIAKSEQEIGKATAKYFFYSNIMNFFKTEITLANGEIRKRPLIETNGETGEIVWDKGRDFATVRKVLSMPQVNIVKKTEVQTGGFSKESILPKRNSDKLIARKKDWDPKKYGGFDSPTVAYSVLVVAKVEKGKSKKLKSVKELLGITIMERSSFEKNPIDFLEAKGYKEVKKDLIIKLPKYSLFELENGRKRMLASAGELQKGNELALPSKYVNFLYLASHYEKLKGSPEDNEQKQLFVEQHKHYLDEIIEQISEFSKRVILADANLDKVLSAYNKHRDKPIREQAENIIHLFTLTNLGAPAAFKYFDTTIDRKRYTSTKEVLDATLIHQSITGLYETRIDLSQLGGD
Test: cell_activity; +++; HEK293T; PAM not stated
How it was run: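 BFP-to-GFP conversion via reverse transcriptase fusion with each Cas endonuclease plus template RNA: 200 ng of each plasmid nucleofected into 250,000 BFP-expressing HEK293T cells (program DS-150). Percent GFP+ cells by flow cytometry at day 4 measured editing.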

B1: BFP-to-GFP template RNA ; BFP reporter protospacer (ssRNA ; dsDNA)
RNA: GCCGAAGCACUGCACGCCGUGUUUUAGAGCUAGAAAUAGCAAGUUAAAAUAAGGCUAGUCCGUUAUCAACUUGAAAAAGUGGCACCGAGUCGGUGCACCCUGACGUACGGCGUGCAGUGCUU
DNA 1: GCCGAAGCACTGCACGCCGT
DNA 2: ACGGCGTGCAGTGCTTCGGC
  activity: ≥ 100 % of reference
